T1: human dual endothelin-1/VEGF signal peptide receptor (DEspR) on intact cells (human, UniProt B0L3A2 1-85)
T1 construct: also called hDEspR; DEAR
T1 sequence: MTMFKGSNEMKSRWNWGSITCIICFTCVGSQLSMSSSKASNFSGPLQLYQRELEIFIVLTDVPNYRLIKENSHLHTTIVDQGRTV

B1: 6g8g7-derived IgG4 humanized monoclonal antibody 1 (antibody)
heavy: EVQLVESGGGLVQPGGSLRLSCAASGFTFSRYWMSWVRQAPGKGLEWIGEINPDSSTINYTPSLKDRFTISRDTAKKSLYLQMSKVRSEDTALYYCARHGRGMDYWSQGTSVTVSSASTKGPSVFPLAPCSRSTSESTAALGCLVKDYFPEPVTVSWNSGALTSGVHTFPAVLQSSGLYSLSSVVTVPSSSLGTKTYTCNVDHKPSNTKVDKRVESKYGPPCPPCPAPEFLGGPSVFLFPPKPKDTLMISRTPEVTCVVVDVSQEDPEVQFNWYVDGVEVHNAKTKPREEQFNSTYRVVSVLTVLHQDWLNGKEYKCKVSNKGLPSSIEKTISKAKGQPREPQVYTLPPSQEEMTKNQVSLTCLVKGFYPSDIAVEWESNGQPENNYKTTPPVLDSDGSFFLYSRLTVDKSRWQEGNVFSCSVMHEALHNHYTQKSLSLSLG
light: DIVLTQSPDILSVSLGERATVNCKASQNVDSNVAWYQQKPGHPPKLLIYSASYRYSRVPDRISGSGSGTDFTLTISNLQAEDVAVYYCQQYHSYPLLAFGAGTKLELKRTVAAPSVFIFPPSDEQLKSGTASVVCLLNNFYPREAKVQWKVDNALQSGNSQESVTEQDSKDSTYSLSSTLTLSKADYEKHKVYACEVTHQGLSSPVTKSFNRGEC
notes: Hinge-stabilized (S228P) human IgG4 / kappa, transiently expressed in HEK293; also called 6g8^IgG4 humab1; 6g8IgG4 humab1
B2: IgG1 6G8G7 humanized monoclonal antibody (antibody)
heavy: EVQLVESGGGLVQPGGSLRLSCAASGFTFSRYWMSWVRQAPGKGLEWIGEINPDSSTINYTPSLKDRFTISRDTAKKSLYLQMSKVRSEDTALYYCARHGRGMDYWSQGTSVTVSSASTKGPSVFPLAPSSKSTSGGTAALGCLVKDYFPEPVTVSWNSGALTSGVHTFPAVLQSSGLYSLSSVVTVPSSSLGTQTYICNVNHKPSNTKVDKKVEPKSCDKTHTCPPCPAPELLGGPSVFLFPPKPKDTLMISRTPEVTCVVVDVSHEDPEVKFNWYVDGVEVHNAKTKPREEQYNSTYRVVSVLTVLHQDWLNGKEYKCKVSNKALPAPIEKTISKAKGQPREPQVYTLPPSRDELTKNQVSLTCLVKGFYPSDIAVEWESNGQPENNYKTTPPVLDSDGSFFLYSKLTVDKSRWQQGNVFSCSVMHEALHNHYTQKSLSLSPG
light: B1 light
B3: 7C5B2 murine anti-human DEspR monoclonal antibody (antibody, V domains shown)
VH: QVQLKESGPGLVAPSQSLSITCTVSGFSLKSYAVSWVRQPPGKGLEWLGVIWGDGSTDYHSALISRLSISKDNSKSQFFLRLNSLQTDDTATYYCARGTGTGFAYWGQGTLVTVSA
VL: DVVMTQTPLSLPVSLGDQASISCRSSQSLVHSNGNTYLHWYLQKPGQSPKLLIYKVSNRFSGVPDRFSGSGSGTDFTLKISRVEAEDLGIYFCSQCTHIPWTFGGGTNLEIK
notes: Murine hybridoma antibody raised against the 9-aa N-terminal peptide of DEspR; An IgG2b isotype control was used with it; It was AF568-labelled in the FACS and imaging assays; also called 7C5-murine monoclonal antibody; lead mouse prototype anti-human DEspR monoclonal antibody
B4: 6G8G7 murine anti-DEspR monoclonal antibody (antibody, V domains shown)
VH: EVQLQESGGGLVQPGGSLKLSCAASGFDFSRYWMSWVRQAPGKGLEWIGEINPDSSTINYTPSLKDKFIISRDTAKKTLYLQMSKVRSEDTALYYCARHGRGMDYWSQGTSVTVSS
VL: DIVLTQTNQIMSASVGDRVSVTCKASQNVDSNVAWYQQKPGHSPKALIYSASYRYSRVPDRITGSGSGTDFTLTITNVQSKDLADYFCQQYHSYPLLAFGAGTKLELKR

How the values were obtained:
[1] = target: rat DEspR on rat neutrophils (rat); assay: cell-based or functional assay
[2] = target: T1, human dual endothelin-1/VEGF signal …; assay: FACS, AF-568-labeled mAb on Panc1 cells
Protocol: (§1) Binding was quantified by FACS with corresponding isotype labeled antibodies as background controls. […] Furthermore, 6G8 humanized monoclonal antibodies were developed using two different human IgG Fc regions-human IgG1 and hinge-stabilized human IgG4, thus affirming high-affinity binding.
(§2) Neutrophils (50000/well) were incubated in the absence or presence of mAbs at 37° C. × 4 hrs and live cells counted by using Trypan blue. HUVEC-dependent angiogenesis (20,000 cells/well) was performed as described in the presence or absence of mAbs. Number of polygons and number of branch points were determined after 14 hrs of incubation at 37° C. ND, not done, indeterminate, value greater than upper limit of max dose used in these experiments.

[3] = target: T1, human dual endothelin-1/VEGF signal …; assay: FACS, binding to DEspR on intact human cells at 4° C
Protocol: as §1
Binding was determined by FACS analysis.
as §2

[4] = target: rat DEspR on rat neutrophils (rat); assay: cell-based or functional assay; remark: listed apart in the source
[5] = target: T1, human dual endothelin-1/VEGF signal …; assay: saturation binding of AF568-labelled mAb to DEspR+ Panc1 cells, FACS
Protocol: Saturation binding curves of monoclonal antibody (mAb) binding to DEspR on Panc1 CSCs. […] Specific binding was determined by FACS analysis using 100,000 cells in 0.25 ml containing increasing concentrations of mAbs. Incubations were done at 4° C. for 20 min and immediately subjected to FACS analysis on a BDTM LSRII Flow cytometer. Each data point was performed in duplicate.
Fully human VH5/VK1 has a slightly better Kd than VH3/VK2 fully human composite antibodies. […] (FIG. 16).

Binder | Rat activated Neutrophil survival, IC50 [1] [µg/mL] | EC50 [2] [nM] | EC50 [3] [nM] | Rat Neutrophil survival, IC50 [4] [µg/mL] | Kd [5] [nM]
B1 | 1.16 | 21.1 | 21.1 | 1.16 | –
B2 | 6.98 | – | – | 6.98 | –
B3 | – | – | – | – | ~33
B4 | – | – | – | – | ~33

Source: patent US20170058036A1 (published 2017)
